Values quoted from earlier work as cited in publication PMC3562316.
pKd: −log10 of the molar value.

Target: IGF1R (Homo sapiens) (UniProt P08069)

With IGF-2 (from UniProt P01344) as the substance, how does the pKd read?
The pKd was 9.70.
